Assay: label from the status in PepcDB records

Sequence | protein production
MKINKLLFGMLLLLLASCGSSRKVEKQSEQVAVQEINLTPEQQRKYDYFFLEASRLKVKKEYTAAFDLLQHCLAINPTGSAALYEIAQYYLFLKQAPQGQEALEKAVAYAPDNYWYSQALAGLYQQQDQKEKAIGILEKMATRFPAKQDPLFNLLDLYNQKEDYGKVISTLNRIEEKTGKNEQITMEKFRIYLQMKDDKKAFEEIESLVNEYPMDYRYQVILGDVYMQNGKKQEAYDTYKKVLAAEPDNPMALFSLASYYEQTGQKELFEQQMDTLLLNRKVPSDTKVNVMRQFIVQSEQEGKDSTQVIGLFDRMMQMDMDDVQIPMLYAQYLLSKGMEAQSIPVLEQVVQIDPTNKAARMTLLGSAIRKNDYEQVIKICEPGIEATPDALEFYFYLVIAYNQAEHWDDVLEVSRKALEHVTPESDKQMVSDFYTIIGDVYHTKKLMKEAYAAYDSALVYNPSNIGALNNYAYYLSVERRDLDKAEEMSYKTVKAAPNNATYLDTYAWILFEKGNYAEARIYIDDAIKNTKPEEESSVVFEHCGDIYFMTGDVEGALKYWKKALELGTESKTLKQKIEKKKYIAE | failed
MAELAANDIDSALRWLERAIDHDPEYSSAYAALGDIYQRTNDPVEADYCLRMALRCSPDSSEILHKLARNCVTLGNRSEALALLREAKDRHSGSVDFLSQLALIYDDLDETDLAICTWEEVIALNPLDASAHNNLGLQWHYGKGDVDKALDCFMRALQLNPCLTEARFNLYQAKADAGKVDEALAGFESMLAEPFREEVMFHRSIMLLKNRRFGEGWREYHLRWRYRGTQSRSFPFPNWDGQPCTGKTLLVYGEQGLGDEIMFASCLRDLHEKTGAKIVLECNTRLESLFRRSFPGITVIGRSSAQTSADGLASGATIDFQTAIGDLPGMFRAEEAAFPNHRGYLVADPKRVTFWKDRLAALGEGPKIGISWRGGQGKTRREARSIPLQEWHPILAAEGRHFVSLQYTDCRQELQALEEQHGIVIHHWQEAIDDYDETAALVMALDKVITVCTSIVHLTGALGRPAWVLVPRVPEWRYLASGETMPWYPSVRLFRQPRAGDWAPVLRDIAWKLGTVARRVDHDLG | failed
MINEHYIPQAVILANGEYPAHELPLRLLAEAQFVVCCDGAANEYISRGHTPDVIIGDGDSLLPEYKKRFSSIILQISDQETNDQTKAVHYLQSKGIRKIAIVGATGKREDHTLGNISLLVEYMRSGMEVRTVTDYGTFIPVSDTQSFASYPGQQVSIINFGAKGLKAEGLFYPLSDFTNWWQGTLNEAIADEFTIHCTGEYLVFLAY | not failed
MANVLVINFPGEGHINPTLAIISELIRRGETVVSYCIEDYRKKIEATGAEFREFENFLSQINIMERVNEGGSPLTMLSHMIEASERIVTQIVEETKGEQYDYLLYDNHFPVGRIIANVLQLPSISSCTTFAFNQYITFNDEQESRQVDETNPLYQSCLAGMEKWNRQYGMKCNSMYDIMNHPGDITIVYTSKEYQPRSDVFDESYKFVGPSIATRKEVGSFPMEDLKGEKLIFISMGTVFNEQPELYEKCFEAFKGVEATVILAVGKKINISQFENIPNNFKLYNYVPQLEVLQHADVFVTHGGMNSSSEALYYGVPLVVIPVTGDQPLVAKRVNEVGAGIRLNRKELTSELLRETVKEVMYDVTFKENSRKVGESLRNAGGYKRAVDEIFKMKMNSYLKLK | failed
DKGTALLVNRSLRFGERTAEELMTPRVKIVTLSTTDTVADLIDTASRTGFSRFPVVESDLDDAVGVVHIKHAFAVPAHRRRTARLNSLAQKVPVVPSSLDGDALMERIRSDGMQVAFVVDEYGGTAGMVTMEDLIEEIVGDVR | failed
MDALLTKFNEDRSLQDENLSQPRTRVRIVDDNLYNKSNPFQLCYKKRDYGSQYYHIYQYRLKTFRERVLKECDKRWDAGFTLNGQLVLKKDKVLDIQGNQPCWCVGSIYCEMKYKPNVLDEVINDTYGAPDLTKSYTDKEGGSDEIMLEDESGRVLLVGDFIRSTPFITGVVVGILGMEAEAGTFQVLDICYPTPLPQNPFPAPIATCPTRGKIALVSGLNLNNTSPDRLLRLEILREFLMGRINNKIDDISLIGRLLICGNSVDFDIKSVNKDELMISLTEFSKFLHNILPSISVDIMPGTNDPSDKSLPQQPFHKSLFDKSLESYFNGSNKEILNLVTNPYEFSYNGVDVLAVSGKNINDICKYVIPSNDNGESENKVEEGESNDFKDDIEHRLDLMECTMKWQNIAPTAPDTLWCYPYTDKDPFVLDKWPHVYIVANQPYFGTRVVEIGGKNIKIISVPEFSSTGMIILLDLETLEAETVKIDI | failed
MGSSGDLANSAERKLDDEKKRCDWRFTDNTPLIAACLLTGAVVLGVHYISICKDRTDISLPTLMESIESKCRSLGDAFNASAPESVLHPVPTQIGVAIWVAREEWSLPVHDTLDRIEKVVSGAGNRKQQFIQRIVRVSQLGSDGNLEKSSSSSTKWGGSSKVSQDPLANAAIKQQLGLSVAKHAYAVSLKEELLMHTISFFAAPPSAAKSVRCFLFDDKRAYCTVSTEMGMETTKREVEAAVATLLANWLEIENFRDANATQRWAMMRKVRGCHYALRALRQLKMSVDAHPEMPVPEGVRGAADRLEKLVRESDFAKLARAAADLQFHQLLLPQIYIPWDQAVVNHLSILMPVYGVITLAVRLIKENRKRAQVVQNS | failed
MFFSKLFRKDAASCLEKGEKLLAAGRFAEARLSLEDALERLDAHSPEGATTAAVIREKMVVAGNRLAEMNLQEAEHCLKSGEFAKAEEHLNLTLDLADDVTIRDKAVKSFALLEKQIPHVHHHEKKGGCGGCGGSTSQHSENIELEDDGLNDMDRFELLVRPLPGDLPERYADLGEEFAGGYLAAHGGDQMTAEKVFERLLASGESDILLYELAILSHQGGDGRRCETLLRRALALNDTNPLCNLSLVQLLTENGRFTEAVPLLERMVERDILPDQAGMFLGEIYRVQGESDRAIAQFSQLLSTPLKREAAERLVGLLETTGRSQEAALVAKQYLKGCC | failed
IEKCWTEDEVKRFVKGLRQYGKNFFRIRKELLPNKETGELITFYYYWKKT | not failed
MKILILGGTRFLGRAFVDEALQRGHEVTLFNRGTNKEVFPEVEQLIGDRNNDVSSLKNRKWDVVIDTCGFSPHHIRNVGEVLNDNIEHYVFISSLSVYKDWILHDIKEDYILQPEPTDDQIKAVENGEVSPYEYYGALKVLCEKEAEKYWPGRVLHVRAGLLSGMFDYTDRLPYWIQRVAKGGKVLVPGRKDRPVQIVDIKDVANWGLNMAENKNAGTFNVTGPNYDLTMEELLNTCKKVMNSDAEFVWVEESFMNEHNVQPWTEMPLWLPEIFSLEGETKPWKGGFTISIENAVKEGLTFRRIEETVTDVYEWMKSTDEWELKAGISGEREKELLERWYQ | failed
MSSSTALAPSTAPNIIQGGMGIGVSSWRLARHVARRGEIGIVSGTGIDSVVVRELQEGDPHDRRQMLADYPDEEIADHLVERFYRPDGLPADEPYDLLNMHPFEPSVRSQRILAAATYTEVRLAAAGHEGMIGMNLLAKLKRYTLPCIYGALLSDIDIVSIGAGIPLEEARQIPKLAAGEPAALRLDVDTSQAPDADDSYAYRFDPADVLDAPPTLDRPLFLPIISSDALARIMDAKLPDRRVDGWVVEGPVAGGHNAPPRNKNYADDGTPLYDERDEADLEAIRSLGKPFYLAGGHGSPEGLRAAHEAGAAGIQVGSLFSLTDESGYPPSTTRRLIRGLHTGEIEVSTEGRVSSTGFPFKVLTADGTLADAEVYERRARICDLGYLREPYLDEEGRLMGRCPAEPVKTYVSRGGAPEETEGRACLCNALMANIGLGQQRGARAEPPLFTGGDALEDLPLGSAEDPQYDADDVLNYLYQDVRPPRVSSPLRRPQPAD | failed
MSAFDFNFQPSINQQDVLDFTDLRFIGKYENIVFLDSNVVSKNRISTYFIKCHHLKENLRKAKLENSLENRLKHYSKYKLLIIDEIGYLPIGSEAAKIFFQINRFKVLEHHHHHH | not failed
MYEIKGHHHISMVTKNANENNHFYKNVLGLRRVKMTVNQDDPSMYHLFYGDKTGSPGTELSFFEIPLVGRTYRGTNAITRIGLLVPSEDSLHYWKERFEKFDVKHSEMTTYANRPALQFEDAEGLRLVLLVSNGEKVEHWETWEKSEVPAKHQIQGMGSVELTVRRLDKMASTLTEIFGYTEVSRNDQEAIFQSIKGEAFGEIVVKYLDGPTEKPGRGSIHHLAIRVKNDAELAYWEEQVKQRGFHSSGIIDRFYFKSLYFRESNGILFEIATDGPGFTVDGDVEHLGEKLDLPPFLEDQRAEIEANLAPIEEK | not failed
MKWEMGLQEEYIELIKAGKKKIEGRLYDEKRRQIKPGDIIIFEGGKLKVKVKGIRVYSSFKEMLEKEGIENVLPGVKSIEEGVKVYRQFYDEEREKKYGVVAIEIEPIE | not failed
MEDLERRQRSQVKTHEVQAHGRISRLIPAEDFGIIETPEGREIYFHRHSVVNSDFDRLTVGTAVRFAEEMGEEGPQASSVRVEGKHHLIGLEHHHHHH | not failed
MRGPGSASVRGYGQCKDTLHTSSPFHEAPASVRRPRTTGRVHTLGIRAPPPPRSQPEFLFSGNPFAPVSSVQRDAARRVSPRIPSLDQASRRPVAKLVVPGGNGFIGTEICRVAVQNGHEVAAFGRTGRPALTPARHPWVQDVEWRAADVFAPDAWRDLLDGADAVVHTIATIREHPDRNVTFDRVNAESALRAAEAAVAADVGAVVFLSVRDKPPLVPYAFLSAKRRAERALREDHPSLRTVTLCPNLVYGARKTGTPTLAAVLNQAQGMRPHPYATAEGRPLPVEFVAAAAVQAAVTSTMEGTLTVPQIDDIGRTSGLVDPNAASTPSLAPLLVGLGGTALGAWLLRRWRAS | failed
MSMESKSKRRSPPSSTLEEEVPGKTIHPEDPKITSKNFENPTKETSIQSPIKNSIKPSWNPEPKITRTSIWDIESAGGDSIQNDCQSECNVEDQGHEQEVTLETRIFSGTSDRIEPHRHYGVYLLRNRFDAIQLLTRNTSSSADDYGERRVISEYREMRCEFRVWSPFQSKLAAGIMGGVSDLHLQIGSKVLYLGAGFGRSVSHISDIVGDSGMVYAVEQIPWAGRQLTIMANRRSNIVPIVEDATMPYKYRYEVPACIDIIFADLPPSVLIRALMLNARHFLNPGGHFVAYLHSPTSQGVVFNKDSFAAERRLLKEKQLEPKEMVLLEPFKAGYAFVVGVYIRKDVSL | failed
MHSMKLLVTGGMGFIGSNFIRYILEKHPDWEVINIDKLGYGSNPANLKDLEDDPRYTFVKGDVADYELVKELVRKVDGVVHLAAESHVDRSISSPEIFLHSNVIGTYTLLESIRRENPEVRFVHVSTDEVYGDILKGSFTENDRLMPSSPYSATKAASDMLVLGWTRTYNLNASITRCTNNYGPYQFPEKLIPKTIIRASLGLKIPIYGTGKNVRDWLYVEDHVRAIELVLLKGESREIYNISAGEEKTNLEVVKIILRLMGKGEELIELVEDRPGHDLRYSLDSWKITRDLKWRPKYTFDEGIKKTIDWYLKNEWWWKPLVDERILHPTPWKLKW | not failed
MKRFVLLDTTAIPENGGALCLFEYGEDFVIKIQGGDGGQLMNTRMHGSEDALAQIPCSKVAGRPNSRVLIGGLGMGFTLAAALKHLGKSAKVVVAELVPGVVEWNRGPLGEKSGRPLLDPRTVIRLEDVAKVLQAEPQGFDAIMLDVDNGPEGLTQKANSWLYSSAGLAACARALRPKGILAVWSASADRQFSERLRKAGFKAEEVQVFAHGNRGTRHTIWIAEKLKA | failed

Reference: a protein production outcome set (Wang et al. 2014)
